The text below walks through data of patent CN112745389A (REYOUNG SUZHOU BIOPHARMACEUTICAL CO LTD, dated 2021).

In test [1] the target is T1, 人IL-5蛋白 (human interleukin-5) (human, UniProt P05113 20-134).
T1 construct: ELISA coating antigen (1 ug/mL) and stimulus in the cell assays; also called hIL5; RB0003
T1 sequence (looked up): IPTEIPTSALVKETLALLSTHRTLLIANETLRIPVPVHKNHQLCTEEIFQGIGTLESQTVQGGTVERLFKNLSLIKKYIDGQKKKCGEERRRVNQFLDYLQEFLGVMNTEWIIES
Briefly: affinity measurement (sensorgram, 1:1 binding model; Figure 3).

The target in test [2] is T1, 人IL-5蛋白 (human interleukin-5). The test is described as follows: cell-based or functional assay.

B1: 人源化32D12C12抗体 (humanized 32D12C12) (antibody, V domains shown)
VH: EVQLVESGGGLVQPGGSLKLSCAASGFTFNTYAMNWVRQASGKGLEWVGRIRSKTANFATFYADSVTDRFTISRDDSKNTLYLQMNSLKTEDTAVYYCVRHGAYYTYDGAMDYWGQGTTVTVSS
VL: DIQMTQSPSSLSASVGDRVTITCKASQDVRTAIAWYQQKPGKAPKLLIYWASTRHTGVPSRFSGSGSGTDYTLTISSLQPEDFATYYCQQHYSTPYTFGQGTKLEIK
Consider B1, for which the binding result in test [1] was “binds”.

B2: RB0003-30E6D5 (antibody, V domains shown)
VH: EVQLQQSGAELVKPGASVKLSCTTSGFNIKDYFIHWVKQRTEQGLEWIGRIDPEDGETKYAPKFQGKATITADTSSNTAYLQLSSLTSEDTAVYYCVSYSTYPDYWGQGTTLTVSS
VL: HIVLTQSPALMSTSPGEKVTMTCSASSSVSYMYWYQQKPRSSPKPWIYLTSTLASGVPARFSGSGSGTSYSLTISSMEAEDAATYYCQQWSSTPFTFGSGTKLEIKR
On to B2, for which the “IC50(ng/mL), 阻断增殖 (TF-1 proliferation, CellTiter-Glo)” value in test [2] was found to be 16.3 ng/mL.
